Reference: patent US8853165B2, “Peptide having the ability to regenerate bone tissue and for binding to apatite” (Nano Intelligent Biomedical Engineering Corporation Co., …, priority 2010, dated 2014)
“And” between values parts separate entries of the source, which are not always exact repeats. Identical values can stand only once. Residues, ends and D or L forms follow the SMILES beside them. *: point of attachment. FITC = O=C1OC2(c3ccc(O)cc3Oc3cc(O)ccc32)c2ccc(NC(=S)*)cc21

Key:
[1] = Peptide release (elution) test from bone graft material in PBS at 37° C., HPLC; assay type: physicochemical, bovine; settings: for Release of Peptide from Bone Mineral: PBS, 37° C., Lot Nos. 1-3
Procedure: 1200 mg of the peptide prepared in Example 1 was dissolved in 1 mL of tertiary distilled water, and then 4 g of bovine bone mineral (OCS-B, NIBEC) was added thereto, followed by deposition for 24 hours and then freeze-drying.
4 g of a bone graft material with a binding peptide was input to 20 mL of PBS, and then the peptide release test was conducted at 37° C. After 7 days, 20 Ml of elution solvent that was initially introduced was completely removed, and then 20 Ml of new elution solvent was again added to proceed elution at 37° C. In the above manner, the peptide elution test was conducted for 14 days, 28 days, 56 days, 84 days, and 100 days. After completion of elution, the bone graft material was collected and the peptide content was measured.
3 g of the bone graft material with a binding peptide was precisely weighed, and then made into powder. About 2 g of the powder corresponding to 160 mg of peptide was precisely weighed, which was then input to 40 mL of Solution A as mobile phase, followed by sonication for 1 hour. After that, extraction was conducted while stirring at 37±2° C. for 24 hours, and then the upper layer of the extracted solvent was separated by centrifuging at 3000 rpm for 10 minutes and then filtration with a 0.22 μm millipore filter. 1 mL thereof was taken therefrom, and mixed with 3 mL of Solution A, which was then filtered through a 0.22 μm millipore filter, then the filtrate was used as the test liquid.
The peptide standard product was dried in the desiccator (silica gel) for 5 hours, and then 10 mg thereof was precisely weighed, which was then dissolved by the addition of Solution A as a mobile phase, and then exactly 10 mL thereof was used as a standard liquid.
The test liquid and the standard liquid each 10 μl were tested under the following operating conditions for liquid chromatography, to obtain test liquid and standard liquid peak areas, AT and AS. Amount of peptide (mg)=amount of peptide standard product (mg)×
Meter: Analytical HPLC (Shimadzu, Japan)
Column: Filled with C18-bonded silica gel with 5 μm size (length: […], inner diameter: 4.6 mm)
Mobile phase: 0.1% trifluoroacetic acid/DDW (Solution A) 0.098% trifluoroacetic acid/acetonitrile (Solution B)
Detector: UV absorption spectrometer (measurement wavelength: 230 nm)
Column temperature: Constant at approximately 40° C.

[2] = test system: rabbit calvarial defect; test: In vivo bone regeneration capacity of peptide-bound bone graft material in calvarial defect; parameters: species or system rabbit (NewZealand white rabbit); settings: peptide bound to bone graft material, 50 mg per 8 mm defect, 2 weeks after graft, histology
Description: Each of the peptides of SEQ ID NO: 35, SEQ ID NO: 36, and SEQ ID NO: 40, prepared in Example 1, was allowed to bind to a bone graft material by the same method as Example 2, which was then grafted into the rabbit calvarial defect. The bone regeneration capacity thereof was confirmed. An 8 mm-diameter circular bone defect was formed in the calvarial region of the anesthetized rabbit (NewZealand white rabbit, specific name: cuniculus). The bone graft material and the peptide-containing bone graft material were grafted into the bone defect with 50 mg for each defect, and the periosteum and skin were doubly sutured. The animal was sacrificed 2 weeks after the graft, and the taken sample was fixed in the formaline solution. The tissue was subjected to embedding to prepare a 20 μm-thick specimen. The prepared specimen was stained with basic fuchsin and toluidine blue to produce a nondemineralized sample. The thus produced sample was observed by an optical microscope, and photographed.

[3] = test system: rabbit calvarial defect; test: In vivo stability of FITC-labeled peptide on bone mineral grafted into calvarial defect (confocal microscope, blood fluorometer); settings: 10 mg and 20 mg bone mineral grafted, blood before and 1, 3, 7, 14, 21, 28 days after graft
Procedure: In order to test in vivo stability, 10 equivalents of fluorescein isothiocyanate (FITC) was allowed to bind to the N-terminus by using triethylamine (1 ml per 1 g of resin) at the time of preparing the peptide of SEQ ID NO: 40. The peptide synthesis was confirmed by measuring the molecular weight thereof through MALDI-TOF.
The peptide of SEQ ID NO: 40, labeled with FITC, was precipitated in the bovine bone mineral (OCS-B, NIBEC). The resultant bone mineral was grafted into the rabbit calvarial defect, and then scarified after 4 weeks. After that, the bone mineral grafted into the calvarial defect was observed by using a confocal microscope (Olympus, Japan). The bone mineral with a binding peptide of SEQ ID NO: 40, labeled with FITC, in 10 mg and 20 mg was grafted into the rabbit calvarial defect. The blood was taken before the graft and 1 day, 3 days, 7 days, 14 days, 21 days, and 28 days after the graft, and then it was determined by using the Fluorometer whether or not the peptide was freed into the systemic blood.

With “NH2-STLPIPHEFSRE-YGLRSKSKKFRRPDIQYPDAT-COONH2 (H-STLPIPHEFSREYGLRSKSKKFRRPDIQYPDAT-NH2) [SEQ ID NO: 40]” the “Content of Peptide Remaining in Bone Mineral” value ([1]; after ending the 100 day elution, Lot Nos. 1, 2, 3) was 9.2 mg and 9.18 mg and 9.78 mg and 9.19 mg, the “Release of Peptide from Bone Mineral” value ([1]; day 7) was 0 mg and the “Release of Peptide from Bone Mineral” value ([1]; day 14) was 0 mg. The “Release of Peptide from Bone Mineral” value ([1]; day 28) was 0 mg, the “Release of Peptide from Bone Mineral” value ([1]; day 56) was 0 mg and the “Release of Peptide from Bone Mineral” value ([1]; day 84) was 0 mg. The “Release of Peptide from Bone Mineral” value ([1]; day 100) was 0 mg, the “peak of the peptide in the elution liquid” value ([1]; elution test for 100 days, Lot No. 1, 2 and 3, retention time 14.196 min) was “not observed” and the bone regeneration effect [2] was “remarkably increased bone regeneration capacity as compared with A and B”.
For CC[C@H](C)[C@H](NC(=O)[C@H](CC(=O)O)NC(=O)[C@@H]1CCCN1C(=O)[C@H](CCCNC(=N)N)NC(=O)[C@H](CCCNC(=N)N)NC(=O)[C@H](Cc1ccccc1)NC(=O)[C@H](CCCCN)NC(=O)[C@H](CCCCN)NC(=O)[C@H](CO)NC(=O)[C@H](CCCCN)NC(=O)[C@H](CO)NC(=O)[C@H](CCCNC(=N)N)NC(=O)[C@H](CC(C)C)NC(=O)CNC(=O)[C@H](Cc1ccc(O)cc1)NC(=O)[C@H](CCC(=O)O)NC(=O)[C@H](CCCNC(=N)N)NC(=O)[C@H](CO)NC(=O)[C@H](Cc1ccccc1)NC(=O)[C@H](CCC(=O)O)NC(=O)[C@H](Cc1c[nH]cn1)NC(=O)[C@@H]1CCCN1C(=O)[C@@H](NC(=O)[C@@H]1CCCN1C(=O)[C@H](CC(C)C)NC(=O)[C@@H](NC(=O)[C@H](CO)NC(=S)Nc1ccc2c(c1)C(=O)OC21c2ccc(O)cc2Oc2cc(O)ccc21)[C@@H](C)O)[C@@H](C)CC)C(=O)N[C@@H](CCC(N)=O)C(=O)N[C@@H](Cc1ccc(O)cc1)C(=O)N1CCC[C@H]1C(=O)N[C@@H](CC(=O)O)C(=O)N[C@@H](C)C(=O)N[C@H](C(N)=O)[C@@H](C)O [SEQ ID NO: 40, labeled with FITC] ({FITC}-STLPIPHEFSREYGLRSKSKKFRRPDIQYPDAT-NH2), the “RFI values of blood (peptide freed into systemic blood)” value [3] was “no differences as compared with the values before the graft”.
For “YGLRSKSKKFRRPDIQYPDAT (partial peptide of bone sialoprotein) [SEQ ID NO: 35]”, the bone regeneration effect [2] was “increased bone regeneration effect as compared with A”.
In the case of “STLPIPHEFSRE (apatite binding peptide) [SEQ ID NO: 36]”, the bone regeneration effect [2] is reported as “smallest”.
